The values that follow come from the supplement of paper PMC7877785.

± gives the uncertainty stated by the source.

A short description of this data set: self-splicing fitness, log relative to wild type (ln ratio); higher = more splicing; Tetrahymena group I intron in knt gene, E. coli kanamycin selection, DiMSum; sequences stand for … in CUCUCU…GGAGGGAAAAGUUAUCAGGCAUGCACCUGGUAGCUAGUCUUUAAACCAAUAGAUUGCAUCGGUUUAAAAGGCAAGACCGUCAAAUUGCGGGAAAGGGGUCAACAGCCGUUCAGUACCAAGUCUCAGGGGAAACUUUGAGAUGGCCUUGCAAAGGGUAUGGUAAUAAGCUGACGGACAUGGUCCUAACCACGCAGCCAAGUCCUAAGUCAACAGAUCUUCUGUUGAUAUGGAUGCAGUUCACAGACUAAAUGUCGGUCGGGGAAGAUGUAUUCUUCUCAUAAGAUAUAGUCGGACCUCUCCUUAAUGGGAGCUAGCGGAUGAAGUGAUGCAACACUGGAGCCGCUGGGAACUAAUUUGUAUGCGAAAGUAUAUUGAUUAGUUUUGGAGUACUCGUGGUCG
The method, boiled down: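 Pooled colonies went to amplicon sequencing on an Illumina HiSeq 2500 after six replicate transformations. The plates were LB agar with 100 μg/mL carbenicillin, 50 μM IPTG and 0.2% rhamnose, with or without 25 μg/mL kanamycin, incubated overnight at 37°C or 30°C. The E. coli BL21(DE3) library had all eight P1ex-region intron nucleotides randomised, the intron placed in the knt kanamycin-resistance gene on pET-22b(+). DiMSum fitness is the error-weighted combination of replicate fold changes, kanamycin against none, normalised to wild type.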

AUAAAGCAAUAUUACGAGCG: the “self-splicing fitness (ln)” value is, setting by setting: (30 °C) -0.041 ± 0.086; (37 °C) 0.101 ± 0.09.
On to AGAGAGCAAUAUUACGUGCA, for which the “self-splicing fitness (ln)” value (30 °C) is -3.36 ± 0.26 and the “self-splicing fitness (ln)” value (37 °C) was -2.34 ± 0.24.
Turning to ACGAAGCAAUAUUACGCCGA, the “self-splicing fitness (ln)” value is -0.564 ± 0.086 (30 °C) and -0.414 ± 0.1 (37 °C).
Consider GGGGAGCAAUAUUACGACCG, for which the “self-splicing fitness (ln)” value (30 °C) was -1.02 ± 0.41.
On to UAGUAGCAAUAUUACGUCGG, for which the “self-splicing fitness (ln)” value is, setting by setting: (30 °C) -2.04 ± 0.08; (37 °C) -1.53 ± 0.12.
For the sequence GUGUAGCAAUAUUACGGGAG, the “self-splicing fitness (ln)” value is, setting by setting: (30 °C) -3.55 ± 0.2; (37 °C) -2.88 ± 0.18.
Turning to AGAAAGCAAUAUUACGCCUU, the “self-splicing fitness (ln)” value (30 °C) is -1.29 ± 0.12 and the “self-splicing fitness (ln)” value (37 °C) is -1.69 ± 0.14.
Consider AUAAAGCAAUAUUACGCUUC, for which the “self-splicing fitness (ln)” value (30 °C) was -3.66 ± 0.37 and the “self-splicing fitness (ln)” value (37 °C) is -2.39 ± 0.32.
For UUUGAGCAAUAUUACGUGUG, the “self-splicing fitness (ln)” value (30 °C) was -3.37 ± 0.23 and the “self-splicing fitness (ln)” value (37 °C) is -2.55 ± 0.33.
In the same order, the values of GGGUAGCAAUAUUACGUUCU are -0.416 ± 0.11 and -0.164 ± 0.13.
AUACAGCAAUAUUACGUAUG: the “self-splicing fitness (ln)” value is -2.42 ± 0.16 (30 °C) and -2.52 ± 0.18 (37 °C).
Take UUCGAGCAAUAUUACGAGGG: the “self-splicing fitness (ln)” value reads like this: (30 °C) -3.94 ± 0.3; (37 °C) -3.12 ± 0.37.
Consider UAGGAGCAAUAUUACGUUCA, for which the “self-splicing fitness (ln)” value is -2.05 ± 0.16 (30 °C) and -1.02 ± 0.19 (37 °C).
As to UUUUAGCAAUAUUACGUUGA, the “self-splicing fitness (ln)” value (37 °C) is -1.8 ± 0.36.
Regarding GAUAAGCAAUAUUACGCUAC, the “self-splicing fitness (ln)” value was -2.85 ± 0.4 (30 °C) and -2.31 ± 0.34 (37 °C).
The like results for GAGGAGCAAUAUUACGGGCA were, in that order, -1.33 ± 0.32 and -3.44 ± 0.47.
Regarding CGAGAGCAAUAUUACGCUUU, for the setting “37 °C”, the “self-splicing fitness (ln)” value is -2.33 ± 0.39.
For GACGAGCAAUAUUACGCGGU, the “self-splicing fitness (ln)” value reads like this: (30 °C) -4.23 ± 0.31; (37 °C) -1.83 ± 0.2.
With GUCCAGCAAUAUUACGAGCC, the “self-splicing fitness (ln)” value was -1.18 ± 0.15 (30 °C) and -0.519 ± 0.16 (37 °C).
For UAACAGCAAUAUUACGCCCC, the “self-splicing fitness (ln)” value (30 °C) was -1.03 ± 0.28 and the “self-splicing fitness (ln)” value (37 °C) was -0.834 ± 0.47.
As to GAUUAGCAAUAUUACGCUGA, the “self-splicing fitness (ln)” value by setting is: (30 °C) -3.17 ± 0.23; (37 °C) -2.53 ± 0.27.
In the same order, the values of CGGGAGCAAUAUUACGGGUG are -3.26 ± 0.28 and -2.07 ± 0.28.
For AGCCAGCAAUAUUACGUCUA, the “self-splicing fitness (ln)” value is -3 ± 0.21 (30 °C) and -2.05 ± 0.19 (37 °C).
The like results for CCUUAGCAAUAUUACGCUGU were, in that order, -3.42 ± 0.2 and -2.49 ± 0.19.
Regarding GUUGAGCAAUAUUACGACCC, under “37 °C”, the “self-splicing fitness (ln)” value is -0.607 ± 0.49.
For UAAUAGCAAUAUUACGACCG, the “self-splicing fitness (ln)” value (30 °C) was -0.0649 ± 0.15 and the “self-splicing fitness (ln)” value (37 °C) came out at 0.638 ± 0.17.
Consider AACAAGCAAUAUUACGCGGG, for which the “self-splicing fitness (ln)” value was -3.55 ± 0.14 (30 °C) and -2.46 ± 0.15 (37 °C).
In the same order, the values of UAGAAGCAAUAUUACGCAAU are -2.51 ± 0.16 and -1.04 ± 0.24.
For AGAGAGCAAUAUUACGGCCG, the “self-splicing fitness (ln)” value is, setting by setting: (30 °C) -3.41 ± 0.36; (37 °C) -1.39 ± 0.28.
As for UUGUAGCAAUAUUACGACGA, the “self-splicing fitness (ln)” value by setting is: (30 °C) -1.08 ± 0.26; (37 °C) -0.0034 ± 0.36.
The like results for AUGAAGCAAUAUUACGCAUC were, in that order, -4.84 ± 0.29 and -2.45 ± 0.17.
The like results for UGACAGCAAUAUUACGCGAA were, in that order, -1.32 ± 0.12 and -0.476 ± 0.14.
In the case of UCCAAGCAAUAUUACGUACA, the “self-splicing fitness (ln)” value (30 °C) was -0.123 ± 0.1 and the “self-splicing fitness (ln)” value (37 °C) is -0.835 ± 0.12.
As for GGCGAGCAAUAUUACGGAUA, the “self-splicing fitness (ln)” value (37 °C) was -2.08 ± 0.37.
For AGGCAGCAAUAUUACGCUUA, the “self-splicing fitness (ln)” value reads like this: (30 °C) -0.31 ± 0.1; (37 °C) -0.299 ± 0.099.
For the sequence GUCCAGCAAUAUUACGCGUU, the “self-splicing fitness (ln)” value was -0.325 ± 0.078 (30 °C) and 0.304 ± 0.1 (37 °C).
As for GGGGAGCAAUAUUACGUUCG, the “self-splicing fitness (ln)” value was -2.01 ± 0.18 (30 °C) and -0.941 ± 0.16 (37 °C).
With UUGGAGCAAUAUUACGUGAG, the “self-splicing fitness (ln)” value runs as follows: (30 °C) -1.84 ± 0.13; (37 °C) -1.54 ± 0.2.
With AAAGAGCAAUAUUACGGCCU, the “self-splicing fitness (ln)” value (30 °C) was -2.16 ± 0.13 and the “self-splicing fitness (ln)” value (37 °C) is -0.199 ± 0.13.
